Experiments:
[1] = target: C3b (Complement Technology cat. A114), purified human C3b (UniProt P01024)
[2] = target: C3b (Complement Technology cat. A114), purified human C3b, P01024
Sequence of C3b (Complement Technology cat. A114), purified human C3b, P01024 (P01024 whole entry, looked up): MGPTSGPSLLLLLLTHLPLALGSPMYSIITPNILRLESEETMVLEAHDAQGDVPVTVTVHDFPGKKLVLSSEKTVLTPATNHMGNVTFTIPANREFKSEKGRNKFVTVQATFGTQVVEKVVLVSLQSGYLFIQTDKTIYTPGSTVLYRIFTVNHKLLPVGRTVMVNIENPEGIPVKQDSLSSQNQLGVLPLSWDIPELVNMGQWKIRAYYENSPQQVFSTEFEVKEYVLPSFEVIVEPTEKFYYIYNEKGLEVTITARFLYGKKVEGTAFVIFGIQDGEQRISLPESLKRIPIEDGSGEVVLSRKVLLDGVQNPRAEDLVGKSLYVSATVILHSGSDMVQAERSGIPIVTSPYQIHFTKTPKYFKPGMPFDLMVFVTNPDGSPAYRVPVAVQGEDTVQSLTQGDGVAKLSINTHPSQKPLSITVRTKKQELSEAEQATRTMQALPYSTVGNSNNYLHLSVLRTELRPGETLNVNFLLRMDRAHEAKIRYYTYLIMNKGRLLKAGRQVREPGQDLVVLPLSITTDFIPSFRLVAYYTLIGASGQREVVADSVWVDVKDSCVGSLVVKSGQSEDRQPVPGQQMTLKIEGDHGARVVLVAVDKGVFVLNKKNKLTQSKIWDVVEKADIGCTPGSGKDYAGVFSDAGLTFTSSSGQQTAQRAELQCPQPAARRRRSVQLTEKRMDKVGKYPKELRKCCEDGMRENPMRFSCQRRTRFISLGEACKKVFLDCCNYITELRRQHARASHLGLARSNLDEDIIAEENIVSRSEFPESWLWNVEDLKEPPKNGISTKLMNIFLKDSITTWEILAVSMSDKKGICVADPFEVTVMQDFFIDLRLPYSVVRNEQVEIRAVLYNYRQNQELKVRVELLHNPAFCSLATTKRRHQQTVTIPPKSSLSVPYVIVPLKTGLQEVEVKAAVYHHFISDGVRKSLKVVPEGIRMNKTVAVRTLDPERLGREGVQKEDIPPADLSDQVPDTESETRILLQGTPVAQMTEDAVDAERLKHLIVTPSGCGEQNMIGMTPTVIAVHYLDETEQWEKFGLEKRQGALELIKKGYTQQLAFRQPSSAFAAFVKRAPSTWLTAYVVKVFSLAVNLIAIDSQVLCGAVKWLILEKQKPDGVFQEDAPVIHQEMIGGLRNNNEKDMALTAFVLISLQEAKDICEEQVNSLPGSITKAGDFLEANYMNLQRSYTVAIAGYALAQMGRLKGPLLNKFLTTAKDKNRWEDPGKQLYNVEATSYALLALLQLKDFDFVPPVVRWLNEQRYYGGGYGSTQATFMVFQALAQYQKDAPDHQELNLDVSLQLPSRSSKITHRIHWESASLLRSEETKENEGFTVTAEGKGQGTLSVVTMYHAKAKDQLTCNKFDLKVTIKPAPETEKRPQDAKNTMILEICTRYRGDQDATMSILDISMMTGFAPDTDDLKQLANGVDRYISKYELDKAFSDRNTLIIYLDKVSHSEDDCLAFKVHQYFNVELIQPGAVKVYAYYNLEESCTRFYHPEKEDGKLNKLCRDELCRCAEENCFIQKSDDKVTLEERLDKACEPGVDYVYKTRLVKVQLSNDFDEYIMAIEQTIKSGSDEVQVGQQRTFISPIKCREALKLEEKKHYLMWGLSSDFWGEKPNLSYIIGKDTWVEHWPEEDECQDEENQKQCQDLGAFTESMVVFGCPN

Row | Molecule | fluorescence cofactor assay: change in RFUs of ANS-labeled C3b over time, with cofactor CFH, MCP or CR1 [1] | other results
1 | A240G CFI protein (Complement Factor I mutant variant) | certain CFI mutations (G119R, A240G, and P553S) were associated with greatly reduced CFI protein function | 
2 | A300T CFI protein (Complement Factor I mutant variant) | the A300T mutation appeared to have relatively little impact on CFI function | 
3 | G119R CFI protein (Complement Factor I mutant variant) | certain CFI mutations (G119R, A240G, and P553S) were associated with greatly reduced CFI protein function | 
4 | P553S CFI protein (Complement Factor I mutant variant) | certain CFI mutations (G119R, A240G, and P553S) were associated with greatly reduced CFI protein function | 
5 | purified CFI (Comptech cat. A138) (protein) KVTYTSQEDLVEKKCLAKKYTHLSCDKVFCQPWQRCIEGTCVCKLPYQCPKNGTAVCATNRRSFPTYCQQKSLECLHPGTKFLNNGTCTAEGKFSVSLKHGNTDSEGIVEVKLVDQDKTMFICKSSWSMREANVACLDLGFQQGADTQRRFKLSDLSINSTECLHVHCRGLETSLAECTFTKRRTMGYQDFADVVCYTQKADSPMDDFFQCVNGKYISQMKACDGINDCGDQSDELCCKACQGKGFHCKSGVCIPSQYQCNGEVDCITGEDEVGCAGFASVTQEETEILTADMDAERRRIKSLLPKLSCGVKNRMHIRRKRIVGGKRAQLGDLPWQVAIKDASGITCGGIYIGGCWILTAAHCLRASKTHRYQIWTTVVDWIHPDLKRIVIEYVDRIIFHENYNAGTYQNDIALIEMKKDGNKKDCELPRSIPACVPWSPYLFQPNDTCIVSGWGREKDNERVFSLQWGEVKLISNCSKFYGNRFYEKEMECAGTYDGSIDACKGDSGGPLVCMDANNVTYVWGVVSWGENCGKPEFPGVYTKVANYFDWISYHVGRPFISQYNV |  | slope of the co-factor assay (fluorescence of C3b/ANS with CFH, kinetic mode) [2]: the slope of the CFI control sample is -0.75±0.02
6 | CFI expressed in eyes of cynomolgus monkeys from AAV2-GP2031 (vector SEQ ID NO: 33) (protein) KVTYTSQEDLVEKKCLAKKYTHLSCDKVFCQPWQRCIEGTCVCKLPYQCPKNGTAVCATNRRSFPTYCQQKSLECLHPGTKFLNNGTCTAEGKFSVSLKHGNTDSEGIVEVKLVDQDKTMFICKSSWSMREANVACLDLGFQQGADTQRRFKLSDLSINSTECLHVHCRGLETSLAECTFTKRRTMGYQDFADVVCYTQKADSPMDDFFQCVNGKYISQMKACDGINDCGDQSDELCCKACQGKGFHCKSGVCIPSQYQCNGEVDCITGEDEVGCAGFASVAQEETEILTADMDAERRRIKSLLPKLSCGVKNRMHIRRKRIVGGKRAQLGDLPWQVAIKDASGITCGGIYIGGCWILTAAHCLRASKTHRYQIWTTVVDWIHPDLKRIVIEYVDRIIFHENYNAGTYQNDIALIEMKKDGNKKDCELPRSIPACVPWSPYLFQPNDTCIVSGWGREKDNERVFSLQWGEVKLISNCSKFYGNRFYEKEMECAGTYDGSIDACKGDSGGPLVCMDANNVTYVWGVVSWGENCGKPEFPGVYTKVANYFDWISYHVGRPFISQYNV |  | fluorescence cofactor assay with CFH: reduction in fluorescence at 472 nm of C3b/ANS mixed with vitreous humor [2]: CFI expressed in eyes of cynomolgus monkeys was capable of cleaving C3b in a dose-dependent manner

— patent publication US20210371480
